Test results as given in the DeepSol protein solubility set.

Test: soluble on expression in E. coli; label from the status in PepcDB or PDB records
With “MGSDKIHHHHHHEEGTSPINENTSNLPVSATADAQLKFAKLLSQAASGSIEVRNFLKKEALVQFDNDYDIFYPLIKDKKVFGNQSFRDILLSYCKEENELSQIEQSLPLLNIMVPDLTLFWDFNATTWDTSDKEISVLCRDDKNNTLYENGENIGNMTNGDIPGFPCLVVKNNERMKITSVNTRSGEATYEFISDAFDGSKKVQTRHYDADNDLEATEDLNKYVSKDVVATAINAWREFKNVPNACQRDYIYYGINKTNTPGSLNRNIREKLYRFRISATAFGRIADADGDQRLQDLTQTKRYLSNEEILQNIWTDGNFEFRFKSYIAGETNKDAMEHLLTFSVKAKDVFSIEKIHLHHKNGTAFRQSKNFYSVDINNLRSKWIYPEKLEPNKDNQVFTLPWDLYNKALSIHMYVEEFDVDQTIEKTITVVNEFTNKADFSIEGGGSIDSVKLSAKLGYGFSHTNTTTSSTKVTTTVGSDELGTLSFFFYDPIIRAESNNTYKLYDVSSGDVTATILPINLIITR” the “soluble on expression in E. coli” value was “not soluble”. In the case of “MGSDKIHHHHHHEILKVLRKNNDFQNWEEIKNRLHPIIIKHVEGEPVYQFFDTLNDNSFEKNGQLISLSTQPINSFVPYHIHNYVEMMVVLSGSCVIKTANEAITLNENEIIIIGCKTIHKVEPIDDKTIMIKIALKRAAFSLEDLVFLTHSHNAQSVSSIVFSLLSSDDSHGAFNVFRTHHDVHVVNKIYNIISEYYCPDDYSNQIIKLEILELFIRLIRIASKDAVFQTQKEVQNNNEIDLLTLLLYIERNYKTINLKSMAKYFNFNPNYLSSILREKTGYTFIKLVHLQRINVAAEYLALTNTPVEGISLAVGYENPSYFYKMFKKYMGCSPKEYRQKQIAG”, the “soluble on expression in E. coli” value is reported as “not soluble”. With “MGSDKIHHHHHHEITDGVVRIGVLNDQTGVYAGLAGPGSVWAAKKAVQDFAPEKHGLKVEIVAADHQNKPDVGASIARRWFDVDKVDAIVDVPTSSVVLAVNQVAKEKNKVMIVTGGGTSDLTGKACTPNAIHWAYDTWALANGTGKAVVKSGGKSWFFVTADYAFGHSLERDTEAVVVKNGGKVLGKVRHPFPGNDFSSYLLQAQASKAQVVGLANAGGDTIGAVKQAAEFGVTAGGQKLAGLLVFSSDVQALGLKAAQGLLLSETWYWDMTDENRKFGKEFAAANNGKFPTMAQAGTYSAVIHYLKAVAAMKADGDGAAVVAKMKAMPTDDKLFGKGSIREDGRKIHPLYLFEVKKPSESKYAGDFYKLIATIPATEAFRPMEEGGCPLIGKKAS” the “soluble on expression in E. coli” value was “not soluble”. For “MGSDKIHHHHHHELVIDITRGVREPMPIAIPVFGGTDAQSSAMGRDVVGVVSNDLQGSGLFRVLDPAAYIQSLPNLAVQPQFADWRAINAQALVQGEVQPQGDGRLRVAFRLWDVFSGQQVVGRAFLTQGDNWRRVSHIIADEIYKAITGEEGYFDTRVVYVAETGPKTNRVKKLAIMDQDGANQRNLTNGESMVLTPRFSPTAQEITYLSYYNSVPRVYLFNIETGRRELLGDFPGMTFAPRFSPDGNKVIMSMALDGNTEIYEMDLRTRRSSRLTNHPSIDTSPSYAPDGRQITFNSDRGGAQQIYVMNADGSGVQRISFGDGRYATPVWSPRGDLIAFTKLKGGRFFIGAMRPDGSGEKILTEGFLVEGPTWAPNGRVLMFFRQDPNGRTTLHSIDVTGYNERQISTPTEASDPAWSPLLP”, the “soluble on expression in E. coli” value was “not soluble”. For “MGSDKIHHHHHHENLYFQGMNTIDIAKSYITAIQTGDHATLGSIISPDVIWHQPGNHQFSGTHRGMAVVGPMLGKMMEVSNGTFAISRADDYMASGDWVAITLEFSGQANGVTLKQAGVDLLRIEDGKIVEVRLFSADQTQEDAFWGR”, the “soluble on expression in E. coli” value was “soluble”. With “MGSDKIHHHHHHENLYFQGMQVIKQKLTATCAQLTGYLHQPDTNAHQTNLPAIIIVPGGSYTHIPVAQAESLAMAFAGHGYQAFYLEYTLLTDQQPLGLAPVLDLGRAVNLLRQHAAEWHIDPQQITPAGFSVGGHIVALYNDYWATRVATELNVTPAMLKPNNVVLGYPVISPLLGFPKDDATLATWTPTPNELAADQHVNSDNQPTFIWTTADDPIVPATNTLAYATALATAKIPYELHVFKHGPHGLALANAQTAWKPDANQPHVAHWLTLALEWLADNR” the “soluble on expression in E. coli” value was “soluble”. With “MGSDKIHHHHHHENLYFQGMSVAHENARRIISDILGKQNIERVWFVGCGGSLTGFWPGKYFLDCEASKLAVGYITSNEFVHATPKALGKNSVVILASQQGNTAETVAAARVAREKGAATIGLVYQPDTPLCEYSDYIIEYQWARYPETVDPAQQKAAYSLWLALEILAQTEGYAQYDELVSAFGRFSDVVHGAQRQVQEDAQRFAAEWKDEKVVYMMGSGPSFGAAHQESICILLEMQWINSASIHSGEYFHGPFEITEPGTPFILLQSSGRTRPLDDRAIRFIERYQGKLQLIDADKLGIQDLSTDVGEYFCGLLHNCVLDVYNLALATARNHPLTTRRYMWKVEY” the “soluble on expression in E. coli” value was “soluble”. For “MGSDKIHHHHHHEVYIFTSHREPALDGLHYLYSYDGYHWDSIAGSWLKPEIGNKTPYYNYFTKQTEEQKYAPNSMMRDPSMTQGPDGTFHLVWTISWNGEQGFGYASSKDLIHWSEQREIKVMKDSLTNNVWAPEVFYDDEKEQFIVAWSSAIPVERYTAADSLGANKSHRAYYTTTKDFQTFTPAKAFYDPGFNSIDGFIVKRDKNDYVLIIKDNRKPGYSDLFCVSGPSAEGPYADPSVKFAPTYSEGPCAVKVGDEWLIYFDVYREGRFGAVSTKDFKNFTPIDDQISIPQGHKHGTIIEVPESVLLNLKAEEAKRFPQKD”, the “soluble on expression in E. coli” value was “not soluble”. In the case of “MGSDKIHHHHHHFDKIPTNPNLYHDVSSFSTADLTGKVQKIKLGSKFKIRSLITNKAKTPVFKLSNGRFIRASHDNVYEDIVLRRENVKGSYWLKKTFTVYQTPYVAGTKIANTKLTNYNKVHISQKAITKHGIYLKADGQGWINEKDLTVQDNRMEKVQALLTRKYNKPNYSIYVKQLKTRKTAGINEDKSMYSASVTKLPILYFIEKQIKDGRVKLTDKFKYIEQVNQFKGAYKVEGSGEMPKKADNKYYTVDSLLKAVTQHSDNVASNILGYYIAHQYDKTYQKTVLRVADVKWNMESRNVSSKTAANVMEALYSQKSPVISYLTSTEFDNTRISRDIAVPVAHKVGDAYDYKHDVAIIYADQPFILSVFTDKSSYEDISTIADDVYGILK”, the “soluble on expression in E. coli” value is reported as “not soluble”. With “MGSDKIHHHHHHFEERSGVVPCGTPWGQWYQTLEEVFIEVQVPPGTRAQDIQCGLQSRHVALAVGGREILKGKLFDSTIADEGTWTLEDRKMVRIVLTKTKRDAANCWTSLLESEYAADPWVQDQMQRKLTLERFQKENPGFDFSGAEISGNYTKGGPDFSNLEKDGT” the “soluble on expression in E. coli” value was “not soluble”. For “MGSDKIHHHHHHGKKDKEKIIDDFKVAVVTQPLSENKVQYNMVEEMAKEYEEENKIDKDKDGQTKVKQTIKHVVLPENFTSNIDSAINKIVKLADDKEVQAIVVSTDQAGLLPALQKVKEKRPEIITISAPMGDDKNQLSQFVDVNLGVSAEERGKVLAERSKEMGAKAFIHYASTDDLKDVNIAKRLEMIKETCKNIGLPFVQVNTPNINTEEDKNKVKQFLNEDIEKQVKKYGKDINVFGVNEYMDEVILTKALELKYIVAEQSNPSPIQTYPSVMGLKISEKDAQNYDKINDMISEKAKAFGMSNRLGGYPMPMDAFLPSLAIYLATEMVKQDLTQEDVCDPDYLEAFTELRFGIGSEFTPLTEVLYNYQSVILSQLIY”, the “soluble on expression in E. coli” value was “not soluble”. With “MGSDKIHHHHHHGTVSWNLREMLAHAEETRKLMPICMDVRAIMATIQRKYKGIKIQEGIVDYGVRFFFYTSKEPVASIITKLNSLNEPLVTMPIGYVTHGFNLEEAARCMRSLKAPAVVSVSSPDAVTTYNGYLTSSSKTSEEHFVETVSLAGSYRDWSYSGQRTELGVEFLKRGDKIVYHTLESPVEFHLDGEVLSLDKLKSLLS” the “soluble on expression in E. coli” value was “soluble”. In the case of “MGSDKIHHHHHHKFIIFTYKDSYINQSATFHSDRTNLNIKREKCDFSFFNISIGHKLSLSLQNLIINPFNYMAFTNNIMIVRHRLLTELVKLWKNGELTTDKIDRLPLELSPRRSKHAGRCCVHKERAVWKYKSLPLLGLDMDDETDELTPLSEYAARSIERANNGKPKDNIMCVIDEACSACVQINYEITDLCRGCTARSCQYNCPKGAVHVHADTGKAWIDHDTCISCGICHKSCPYHAIVYIPVPCEESCPVKAISKDEHGIEHIDENKCIYCGKCMNACPFGAIFEISQTFDVLQRIRKGEQVVAIVAPSILGQFSTTIEQVYGAFRQIGFTDIIEVAQGAMSTVEHEAHELIEKLEEGQKFMTTSCCPSYIELVNKYIPDMKKYVSGTGSPMYYAARIAKEKYPDAKIVFVGPCVAKRKEAQRDEAVDFVMTFEEISSIFDAFEINLEIVQPYAMEFSSVREAHGFAQAGGVMGAVKAFLKMEADKINAIQVSDLNKKNIGTLRAYAKSGKAPGQFIEVMACEGGCITGPSTHSGSNNGKRQLVQELAKQKKTY”, the “soluble on expression in E. coli” value is reported as “not soluble”.
